Consider one molecule from patent publication US20210196823A1, “Methods of Treating Metabolic Disease” (Pfizer Inc., priority 2018, published 2021).

In test [1] the test system is Huh7 cells. Kind of test: Activity of erythroferrone domains and subunits in Huh7 cells (qRT-PCR). It counts as cell-based. The following applies: FIG. 8A. As to the method: FIG. 6. The C1q domain is not required for erythroferrone activity: (FIG. 6A) Huh7 cells were treated for 24 h with full-length or C1q domain of human erythroferrone (10 μg/ml). (FIG. 6B) Huh7 cells were treated for 24 h with adipoferrone (construct containing N-terminal domain of adiponectin and C1q domain of erythroferrone) or C1q trimer (Tri-C1q) derived from mouse erythroferrone at 10 μg/ml. Gene expression measured by qRT-PCR. Data represents mean+standard deviation (n=3). ***p<0.001; ****p<0.0001.
FIG. 8. Erythroferrone subunits designed based on predicted patterns of furin cleavage differ in their ability to suppress hepcidin: (FIG. 8A) mono-Fc-huERFE A4 construct suppresses hepcidin expression, (FIG. 8B) Huh7 cells were treated for 24 h with human erythroferrone subunits that were designed to represent all the potential Erfe subunits that could be formed assuming activity at both in silico-predicted furin cleavage sites. (see FIG. 7A). Gene expression measured by qRT-PCR. Data represents mean+standard deviation (n=3). ***p<0.001; ****p<0.0001.
Erythroferrone is a member of the C1q/TNF-related protein (CTRP) family and comprises a structure composed of a signal peptide, an N-terminal, a collagen-like domain, and a globular C terminal domain homologous to complement protein 1q (C1q). […]

In test [2] the target is furin (Homo sapiens, UniProt P09958). Kind of test: Furin cleavage of wild-type and RARR-AAAA (A4) Erfe mutant, Coomassie staining. Format: biochemical. As to conditions: RARR site mutated to AAAA vs wild-type. The text has this:
FIG. 7. Mutation of the RARR furin cleavage site at the N-terminal of Erfe prevents cleavage by furin. (FIG. 7A) Diagrammatic structure of full length human erythroferrone and potential subunits generated after furin cleavage. (FIG. 7B) Coomassie blue staining of wild-type and an RARR-AAAA(A4) Erfe mutant, in the presence or absence of furin protease.
Sequence analysis of human erythroferrone using the ProP software predicted two furin cleavage sites: RARR at position 42 and RLRR at position 212 (FIG. 7A). The RLRR site is conserved in the mouse ortholog (position 198).

Chain of furin (P09958 108-794, species assumed): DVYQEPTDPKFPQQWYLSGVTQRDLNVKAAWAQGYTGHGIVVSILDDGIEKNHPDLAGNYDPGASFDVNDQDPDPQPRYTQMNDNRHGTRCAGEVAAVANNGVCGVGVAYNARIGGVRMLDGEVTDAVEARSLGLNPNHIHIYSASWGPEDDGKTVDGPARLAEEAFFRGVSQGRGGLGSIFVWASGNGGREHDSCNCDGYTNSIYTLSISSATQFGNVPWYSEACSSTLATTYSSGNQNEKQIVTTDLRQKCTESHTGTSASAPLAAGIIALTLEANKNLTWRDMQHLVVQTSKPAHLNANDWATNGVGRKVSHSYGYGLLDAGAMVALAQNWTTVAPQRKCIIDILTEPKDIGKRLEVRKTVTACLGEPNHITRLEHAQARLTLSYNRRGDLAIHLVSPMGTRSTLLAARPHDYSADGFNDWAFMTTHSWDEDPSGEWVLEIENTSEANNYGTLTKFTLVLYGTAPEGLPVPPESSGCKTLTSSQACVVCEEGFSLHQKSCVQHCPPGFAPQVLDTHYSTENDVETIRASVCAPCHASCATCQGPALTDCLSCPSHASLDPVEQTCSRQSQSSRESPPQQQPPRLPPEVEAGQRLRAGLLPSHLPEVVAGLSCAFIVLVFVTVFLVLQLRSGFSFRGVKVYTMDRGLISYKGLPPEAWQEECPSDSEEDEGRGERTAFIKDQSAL

B1: monoFC-huErfe A4: human erythroferrone mono-Fc construct with RARR furin cleavage site mutated to AAAA (protein)
chain: AAGLGSPEPGAPSRSAAAAEPPPGNELPRGPGESRAGPAARPPEPTAERAHSVDPRDAWMLFVRQSDKGVNGKKRSRGKAKKLKFGLPGPPGPPGPQGPPGPIIPPEALLKEFQLLLKGAVRQRERAEPEPCTCGPAGPVAASLAPVSATAGEDDDDVVGDVLALLAAPLAPGPRAPRVEAAFLCRLRRDALVERRALHELGVYYLPDAEGAFRRGPGLNLTSGQYRAPVAGFYALAATLHVALGEPPRRGPPRPRDHLRLLICIQSRCQRNASLEAIMGLESSSELFTISVNGVLYLQMGQWTSVFLDNASGCSLTVRSGSHFSAVLLGV
As for B1, the hepcidin expression result in test [1] is “effectively suppress”. In test [2], the “clipping of human erythroferrone after treatment with furin” value is on record as “reduced the clipping”.
